Experiments:
[1] = tested on: SY5Y cells; assay: 125I-Aβ uptake by SY5Y cells (apoE-dependent); format: cell-based, human
Method: Preparation of ApoE and binding with ^125I-Aβ. ApoE was isolated from the conditioned media of human embryonic kidney (HEK-293) cells stably-transfected with human apoE (having the ε3 allele or the ε4 allele) cDNA (Tezapsidis et al., FASEB J. 17:1322-1324 (2003)). These preparations, while usually poor in lipid, are fully functional for uptake experiments. ApoE then was pre-incubated with ^125I-Aβ overnight at 37° C. (Aβ/ApoE: 1/50 w/w) as described (Tezapsidis et al., FASEB J. 17:1322-1324 (2003)).
Aβ-uptake by SY5Y cells. Human ^125I-Aβ (iodinated at Tyr-10, Amersham Biosciences, IM 294) uptake was measured following addition of 0.1 nM ^125I-Aβ40 (SEQ ID NO: 4) to confluent SY5Y cells (60,000 cpm/ml) in the presence or absence of 100 ng/ml or 400 ng/ml leptin also included in a 24 h pre-incubation period. ^125I-Aβ was either added alone or was previously incubated with apoε3. In controls, Receptor Associated Protein (“RAP”, 1 μM) was added together with Aβ or the Aβ/apoE complex. RAP is an antagonist of a number of lipoprotein receptors (LaDu et al., Neurochem Int. 39:427-34 (2001)). After 24 h, the media were collected and subjected to scintillation counting for γ-Iradiation (Kang et al., 2000. J Clin Invest. 106:1159-66 (2000)). The amount of radioactivity was measured in both the trichloroacetic acid (10%) TCA pellets (representing intact Aβ) and the corresponding supernatants (representing degraded Aβ). 96.5±8.2% (mean±s.e.m., n=4 experiments, triplicate determinations) of the radioactivity found in the medium could be recovered in the TCA pellet and represented intact or oligomeric Aβ (not shown), when Aβ was pre-incubated with apoE.
The amount of TCA-precipitable radioactivity in the soluble fraction of cell lysates was compared to that in the total lysates, the ratio of which was typically about 0.8 to about 0.9 (not shown), to further verify that radioactivity was reduced in the media as a reflection of Aβ uptake by the cells, rather than due to non-specific binding to the extracellular surface of membranes or oligomerization/aggregation of Aβ.
In panel (a), Aβ uptake was measured in SY5Y cells following their treatment at 0 ng/ml, 100 ng/ml or 400 ng/ml leptin. Uptake also was measured in cells previously transfected with antisense DNA for PS1 as described (Tezapsidis et al., FASEB J. 17:1322-1324(2003)) (black). Uptake is expressed as the percentage of that observed with Aβ pre-incubated with apoε3 (medium gray) in the absence of leptin (first set of columns). […] Leptin induced a dose-dependent increase in Aβ uptake with a preference for apoε3 (medium gray) over apoε4 (light gray). In panel (b), SY5Y cells were pre-treated with […] cholesterol (+Chol) or normal medium (−Chol). Then Aβ uptake was measured following its preincubation with apoε3 (ε3) or apoε4 (ε4) in the absence (black) or the presence (gray) of about 400 ng/ml leptin. Cells were more resistant to taking-up Aβ when loaded with cholesterol. […] In panel (c), SY5Y cells were transiently transfected with SREBP-1 or SREBP-2 cDNA or an empty vector (Control). Then Aβ was measured in the medium by ELISAs (Figueiredo-Pereira et al., J Neurochem. 72:1417-22 (1999)) following treatment with (+) or without (−) leptin. […] In panel (d), Aβ uptake was measured in SY5Y cells prepared as in panel (c). Uptake was performed using Aβ/apoε3 complexes.

[2] = tested on: primary embryonic rat neurons infected with adenovirus; assay: Aβ production by primary embryonic rat neurons infected with adenovirus (SEAP-APP); format: cell-based; conditions: total Aβ in conditioned media, 5 h; concentration (TOFA 200 μM, cerulenin 200 μM, etomoxir 40 μM, peptide YY (3-36) 25 μM, CNTF 25 μM, leptin 400 ng/ml); mean ± SEM; NS = non-significant
Source text: Cell cultures, Treatments, Antibodies and Immunoassays. SY5Y cells (human neuroblastoma) were maintained in culture as described (Johnsingh et al., FEBS Lett. 465:53-8 (2000)). Primary neural cultures were obtained from ε16 rat embryonic cortex, as described (Shimoda et al., 1992. Brain Res. 586:319-31 (1992)). These were either grown as mixed cultures (Johnsingh et al., FEBS Lett. 465:53-8 (2000)) or grown under conditions that favor the isolation and proliferation of astrocytes (Takeshima et al., J Neurosci. 14:4769-79 (1994)).
Neuro2a (mouse neuroblastoma) stably transfected with hyg-sa134, a pcDNA3.1/Hygro plasmid (Invitrogen, CA) modified to express a fusion protein of secreted alkaline phosphatase (SEAP) and a fragment of APP consisting of the C-terminal 134 amino acids (“CAPP134”) (SEQ ID NO:10) were maintained in culture as described ([…]) in the presence of 400 μg/ml of hygromycin. SEQ ID NO: 11 is the DNA sequence of the entire hygsa134 vector, which was derived from the pcDNA3.1/Hygro vector by genetic manipulation to insert the DNA sequences for SEAP and CAPP134. The SEAP-CAPP cDNA insert from hyg-sa134 was also subcloned into an adenoviral vector using the Adeno Vator system (Qbiogene, Calif.). The DNA sequence for SEAP (corresponding to nucleotides 981-2441 of hyg-sa134) (SEQ ID NO: 9) is located 5′ to the DNA sequence (SEQ ID NO: 12) coding for CAPP134 (SEQ ID NO: 10).
SY5Y and hyg-sa134-Neuro2a cells were treated at 80% confluency (see below). Primary neural cultures from mouse embryos were allowed to grow for 6-12 days following plating and prior to viral infection and treatments.
Human (SYSY) or mouse neuroblastoma cell-lines (Neuro2a) commonly are used to study amyloid β metabolism in vitro. Neuro2a cells are stably transfected with hyg-sa134 (SEQ ID NO: 11), a plasmid driving the expression of a recombinant fusion protein containing the human C-terminal fragment of APP of about 134 amino acids, CAPP134 (SEQ ID NO: 10). Here, 5Y5Y or Neuro2a cultures were treated for 2 or 5 h with about 100 ng/ml or about 400 ng/ml leptin (FIG. 4a, 4b). Similarly, primary neurons from embryonic rat brain, infected with an adenovirus to direct the expression of CAPP134 (SEQ ID NO:10) also were treated according to the same regimen.

[3] = tested on: β-secretase; assay: C99/C83 accumulation in SY5Y cells in presence of γ-secretase inhibitors (Western blot); format: cell-based, human; conditions: 5 h

B1: Leptin: peptide hormone controlling adaptive metabolic mechanisms to energy availability; leptin (Harbor-UCLA) in vitro, recombinant murine leptin in mice (protein, UniProt P41160 22-167, looked up)
Leptin: VPIQKVQDDTKTLIKTIVTRINDISHTQSVSAKQRVTGLDFIPGLHPILSLSKMDQTLAVYQQVLTSLPSQNVLQIANDLENLRDLLHLLAFSKSCSLPQTSGLQKPESLDGVLEASLYSTEVVALSRLQGSLQDILQQLDVSPEC
- uptake of apoE-Aβ ([1]; 100 ng/ml or 400 ng/ml leptin, 24 h pre-incubation and uptake): increased the uptake of apoE-Aβ in a dose-dependent fashion
- Aβ uptake phenotype of cholesterol-loaded cells ([1]; about 400 ng/ml leptin during cholesterol pre-incubation and during uptake): almost completely reversed
- Neurons/SEAPP-APP Aβ (% control) [2]: 35 ± 4 % control
- cholesterol-induced increase in C99 ([3]; 10 μM cholesterol in the presence of 400 ng/ml leptin): abolished
- C99 level ([3]; with L-685,458 (100 nM) or Z-VL-CHO (100 μM), 10 μM cholesterol or 400 ng/ml leptin alone): also was observed in the absence of cholesterol

From patent publication US8227408B2, “Leptin as an anti-amyloidogenic biologic and methods for delaying the onset and reducing Alzheimer's disease-like pathology” (Neurotez, Inc., priority 2005, dated 2012)
